PMC9482650, “Quantitative fragmentomics allow affinity mapping of interactomes” (Nature Communications, 2022)
Blank lines part the entries; values can stand above or below the binder they belong to.

Legend:
Assay in all cases: holdup assay
Design in all cases: key: below the threshold = too weak to quantify, mostly under pKd 3.1 to 4
TJP2_1, Q9UDY2 = biological target: TJP2_1, Q9UDY2
GRIP1_3, Q9Y3R0 = biological target: T1, GRIP1_3, Q9Y3R0
T1 sequence (Q9Y3R0 247-346, limits assumed, looked up): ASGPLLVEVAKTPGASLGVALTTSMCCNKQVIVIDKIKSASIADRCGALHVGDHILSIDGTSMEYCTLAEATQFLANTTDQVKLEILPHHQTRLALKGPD

ARHGEF11, O15085 = biological target: T2, ARHGEF11, O15085
T2 sequence (O15085 42-136, limits assumed, looked up): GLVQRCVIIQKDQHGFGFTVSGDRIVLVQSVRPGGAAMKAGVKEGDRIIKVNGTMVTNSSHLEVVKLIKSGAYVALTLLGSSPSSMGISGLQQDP

Inadl_10, Q8NI35 = biological target: Inadl_10, Q8NI35
Chain of Inadl_10, Q8NI35 (Q8NI35 1673-1763): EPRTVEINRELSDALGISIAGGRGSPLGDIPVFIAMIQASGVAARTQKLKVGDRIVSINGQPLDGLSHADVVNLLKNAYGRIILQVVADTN

PCLO, Q9Y6V0 = biological target: T3, PCLO, Q9Y6V0
T3 sequence (Q9Y6V0 4491-4600, limits assumed, looked up): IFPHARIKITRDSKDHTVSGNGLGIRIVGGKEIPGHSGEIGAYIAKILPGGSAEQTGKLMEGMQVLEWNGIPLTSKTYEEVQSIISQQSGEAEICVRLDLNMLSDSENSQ

MAGI2_5, Q86UL8 = biological target: MAGI2_5, Q86UL8
Chain of MAGI2_5, Q86UL8 (Q86UL8 915-1017): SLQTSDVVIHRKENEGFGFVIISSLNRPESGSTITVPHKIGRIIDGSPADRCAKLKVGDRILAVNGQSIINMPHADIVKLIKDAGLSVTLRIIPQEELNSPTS

GRIP2_7, Q9C0E4 = biological target: GRIP2_7, Q9C0E4
Chain of GRIP2_7, Q9C0E4 (Q9C0E4 934-1023): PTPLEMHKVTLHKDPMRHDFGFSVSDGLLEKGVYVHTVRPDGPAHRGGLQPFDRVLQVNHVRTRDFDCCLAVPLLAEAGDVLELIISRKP

MPP6, Q9NZW5 = biological target: T4, MPP6, Q9NZW5
T4 sequence (Q9NZW5 125-219, limits assumed, looked up): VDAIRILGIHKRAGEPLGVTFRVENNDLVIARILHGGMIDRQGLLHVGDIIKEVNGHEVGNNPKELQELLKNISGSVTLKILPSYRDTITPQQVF

MAST2, Q6P0Q8 = biological target: MAST2, Q6P0Q8
Chain of MAST2, Q6P0Q8 (Q6P0Q8 1099-1202): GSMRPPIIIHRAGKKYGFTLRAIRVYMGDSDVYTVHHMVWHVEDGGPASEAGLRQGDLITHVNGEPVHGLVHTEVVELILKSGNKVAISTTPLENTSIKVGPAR

SNX27, Q96L92 = biological target: SNX27, Q96L92
MAGI1_2, Q96QZ7 = biological target: MAGI1_2, Q96QZ7
Chain of MAGI1_2, Q96QZ7 (Q96QZ7 456-580): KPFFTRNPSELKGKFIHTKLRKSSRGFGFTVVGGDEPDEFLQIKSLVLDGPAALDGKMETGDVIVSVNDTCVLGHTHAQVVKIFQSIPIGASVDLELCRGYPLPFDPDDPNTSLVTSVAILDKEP

GRIP1_7, Q9Y3R0 = biological target: T5, GRIP1_7, Q9Y3R0
T5 sequence (Q9Y3R0 999-1096, limits assumed, looked up): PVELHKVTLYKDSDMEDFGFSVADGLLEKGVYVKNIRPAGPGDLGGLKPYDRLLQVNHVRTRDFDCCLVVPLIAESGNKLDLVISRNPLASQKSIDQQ

LIMK2, P53671 = biological target: LIMK2, P53671
Chain of LIMK2, P53671 (P53671 143-248): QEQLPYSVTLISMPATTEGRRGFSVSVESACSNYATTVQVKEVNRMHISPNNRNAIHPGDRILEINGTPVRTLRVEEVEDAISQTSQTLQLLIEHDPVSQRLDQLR

GRIP1_5, Q9Y3R0 = biological target: T6, GRIP1_5, Q9Y3R0
T6 sequence (Q9Y3R0 568-668, limits assumed, looked up): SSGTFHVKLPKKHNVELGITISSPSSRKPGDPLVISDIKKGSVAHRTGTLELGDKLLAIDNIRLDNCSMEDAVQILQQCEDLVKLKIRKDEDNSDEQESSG

AHNAK1, Q09666 = biological target: AHNAK1, Q09666
Chain of AHNAK1, Q09666 (Q09666 4-100): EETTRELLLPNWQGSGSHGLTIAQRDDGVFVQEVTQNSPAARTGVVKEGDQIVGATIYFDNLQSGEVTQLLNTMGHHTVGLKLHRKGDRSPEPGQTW

Inadl_6, Q8NI35 = biological target: Inadl_6, Q8NI35
Chain of Inadl_6, Q8NI35 (Q8NI35 1058-1167): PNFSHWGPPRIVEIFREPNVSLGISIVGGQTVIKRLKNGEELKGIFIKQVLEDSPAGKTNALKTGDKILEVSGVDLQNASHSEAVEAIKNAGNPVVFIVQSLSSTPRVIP

Inadl_2, Q8NI35 = biological target: Inadl_2, Q8NI35
Chain of Inadl_2, Q8NI35 (Q8NI35 238-335): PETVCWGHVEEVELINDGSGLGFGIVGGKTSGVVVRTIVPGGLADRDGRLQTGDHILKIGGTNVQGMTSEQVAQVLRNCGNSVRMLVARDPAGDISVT

DFNB31_2, Q9P202 = biological target: T7, DFNB31_2, Q9P202
T7 sequence (Q9P202 274-371, limits assumed, looked up): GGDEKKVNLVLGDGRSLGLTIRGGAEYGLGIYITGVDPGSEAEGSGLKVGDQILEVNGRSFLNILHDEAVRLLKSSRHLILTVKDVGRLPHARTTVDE

Inadl_8, Q8NI35 = biological target: Inadl_8, Q8NI35
Chain of Inadl_8, Q8NI35 (Q8NI35 1425-1530): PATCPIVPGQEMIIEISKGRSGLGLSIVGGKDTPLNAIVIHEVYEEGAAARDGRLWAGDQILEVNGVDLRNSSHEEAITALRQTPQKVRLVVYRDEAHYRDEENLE

PDZD2_2, O15018 = biological target: T8, PDZD2_2, O15018
T8 sequence (O15018 329-429, limits assumed, looked up): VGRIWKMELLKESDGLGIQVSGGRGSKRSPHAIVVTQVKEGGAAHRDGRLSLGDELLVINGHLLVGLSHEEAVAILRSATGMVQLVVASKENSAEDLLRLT

GRIP2_6, Q9C0E4 = biological target: GRIP2_6, Q9C0E4
Chain of GRIP2_6, Q9C0E4 (Q9C0E4 648-740): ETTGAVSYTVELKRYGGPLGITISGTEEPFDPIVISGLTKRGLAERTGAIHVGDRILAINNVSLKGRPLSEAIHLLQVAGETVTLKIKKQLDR

RAPGEF6, Q8TEU7 = biological target: T9, RAPGEF6, Q8TEU7
T9 sequence (Q8TEU7 525-625, limits assumed, looked up): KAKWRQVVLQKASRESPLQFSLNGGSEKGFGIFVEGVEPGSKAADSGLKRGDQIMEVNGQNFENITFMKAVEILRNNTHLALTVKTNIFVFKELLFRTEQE

PDZRN4_1, Q6ZMN7 = biological target: PDZRN4_1, Q6ZMN7
Chain of PDZRN4_1, Q6ZMN7 (Q6ZMN7 213-318): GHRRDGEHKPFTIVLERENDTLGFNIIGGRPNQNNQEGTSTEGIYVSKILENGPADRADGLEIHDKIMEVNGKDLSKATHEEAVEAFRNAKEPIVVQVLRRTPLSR

GRIP1_2, Q9Y3R0 = biological target: T10, GRIP1_2, Q9Y3R0
T10 sequence (Q9Y3R0 145-248, limits assumed, looked up): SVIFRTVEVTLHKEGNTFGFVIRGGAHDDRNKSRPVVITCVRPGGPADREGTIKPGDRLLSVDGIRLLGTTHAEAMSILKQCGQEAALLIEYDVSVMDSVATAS

GORASP1, Q9BQQ3 = biological target: GORASP1, Q9BQQ3
Chain of GORASP1, Q9BQQ3 (Q9BQQ3 1-208): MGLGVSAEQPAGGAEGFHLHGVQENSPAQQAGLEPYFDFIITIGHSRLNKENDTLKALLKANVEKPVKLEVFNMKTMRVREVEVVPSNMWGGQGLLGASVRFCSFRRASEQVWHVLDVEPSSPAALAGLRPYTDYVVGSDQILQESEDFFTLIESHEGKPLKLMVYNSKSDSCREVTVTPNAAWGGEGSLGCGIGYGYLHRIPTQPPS

Inadl_3, Q8NI35 = biological target: Inadl_3, Q8NI35
Chain of Inadl_3, Q8NI35 (Q8NI35 359-469): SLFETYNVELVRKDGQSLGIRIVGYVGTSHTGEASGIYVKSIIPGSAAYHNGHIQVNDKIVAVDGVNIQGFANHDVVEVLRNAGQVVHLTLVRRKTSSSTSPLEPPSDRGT

GRID2IP_2, A4D2P6 = biological target: GRID2IP_2, A4D2P6
Chain of GRID2IP_2, A4D2P6 (A4D2P6 272-370): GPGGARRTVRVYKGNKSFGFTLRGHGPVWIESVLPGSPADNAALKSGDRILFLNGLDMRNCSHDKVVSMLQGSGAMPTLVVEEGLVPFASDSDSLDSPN

GIPC2, Q8TF65 = conditions: plain residues with an end cap or a label only (N-terminal biotin on a linker: ado-ado)
Chain of GIPC2, Q8TF65 (Q8TF65 112-203): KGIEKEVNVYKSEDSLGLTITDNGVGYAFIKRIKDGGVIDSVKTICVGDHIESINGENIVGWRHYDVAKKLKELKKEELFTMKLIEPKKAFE

[1] = modified: acetyl on K at position -1 from the C-terminal residue
[2] = plain residues with an end cap or a label only (N-terminal biotin on a linker: ado-ado)

Chain of TJP2_1, Q9UDY2 (Q9UDY2 24-128): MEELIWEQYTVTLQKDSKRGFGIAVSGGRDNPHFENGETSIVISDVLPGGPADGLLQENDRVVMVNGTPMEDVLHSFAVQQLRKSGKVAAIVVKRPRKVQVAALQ

Binder: EYRKDNKVAA [LSM14A, Q8ND56;Q8ND56-2]
pKd (GRIP1_3, Q9Y3R0; [2]): below the threshold
pKd (GIPC2, Q8TF65): below the threshold
pKd (ARHGEF11, O15085; [2]): below the threshold
pKd (Inadl_10, Q8NI35; [2]): below the threshold
pKd (PCLO, Q9Y6V0; [2]): below the threshold
pKd (MAGI2_5, Q86UL8; [2]): below the threshold
pKd (GRIP2_7, Q9C0E4; [2]): below the threshold
pKd (MPP6, Q9NZW5; [2]): below the threshold
pKd (MAST2, Q6P0Q8; [2]): below the threshold
pKd (SNX27, Q96L92; [2]): below the threshold
pKd (MAGI1_2, Q96QZ7; [2]): below the threshold
pKd (GRIP1_7, Q9Y3R0; [2]): below the threshold
pKd (LIMK2, P53671; [2]): below the threshold
pKd (AHNAK1, Q09666; [2]): below the threshold
pKd (Inadl_6, Q8NI35; [2]): below the threshold
pKd (Inadl_2, Q8NI35; [2]): below the threshold
pKd (DFNB31_2, Q9P202; [2]): below the threshold
pKd (Inadl_8, Q8NI35; [2]): below the threshold
pKd (PDZD2_2, O15018; [2]): below the threshold
pKd (GRIP2_6, Q9C0E4; [2]): below the threshold
pKd (RAPGEF6, Q8TEU7; [2]): below the threshold
pKd (PDZRN4_1, Q6ZMN7; [2]): below the threshold
pKd (GRIP1_2, Q9Y3R0; [2]): below the threshold
pKd (GORASP1, Q9BQQ3; [2]): below the threshold
pKd (Inadl_3, Q8NI35; [2]): below the threshold
pKd (GRID2IP_2, A4D2P6; [2]): below the threshold

Binder: KSTTRSSSSC [NDE1, Q9NXR1;Q9NXR1-2]
pKd (TJP2_1, Q9UDY2; [2]): below the threshold
pKd (GRIP1_3, Q9Y3R0; [2]): below the threshold
pKd (ARHGEF11, O15085; [2]): below the threshold
pKd (Inadl_10, Q8NI35; [2]): below the threshold
pKd (PCLO, Q9Y6V0; [2]): below the threshold
pKd (MAGI2_5, Q86UL8; [2]): below the threshold
pKd (GRIP2_7, Q9C0E4; [2]): below the threshold
pKd (MAST2, Q6P0Q8; [2]): 4.06
pKd (SNX27, Q96L92; [2]): below the threshold
pKd (GRIP1_7, Q9Y3R0; [2]): below the threshold
pKd (LIMK2, P53671; [2]): below the threshold
pKd (GRIP1_5, Q9Y3R0; [2]): below the threshold
pKd (AHNAK1, Q09666; [2]): below the threshold
pKd (Inadl_6, Q8NI35; [2]): below the threshold
pKd (Inadl_2, Q8NI35; [2]): below the threshold
pKd (DFNB31_2, Q9P202; [2]): below the threshold
pKd (Inadl_8, Q8NI35; [2]): 4.18
pKd (PDZD2_2, O15018; [2]): 4.09
pKd (GRIP2_6, Q9C0E4; [2]): below the threshold
pKd (RAPGEF6, Q8TEU7; [2]): below the threshold
pKd (PDZRN4_1, Q6ZMN7; [2]): below the threshold
pKd (GRIP1_2, Q9Y3R0; [2]): below the threshold
pKd (GORASP1, Q9BQQ3; [2]): below the threshold
pKd (Inadl_3, Q8NI35; [2]): below the threshold

Binder: LRYARPADAL [PPP1R3G, B7ZBB8]
pKd (TJP2_1, Q9UDY2; [2]): below the threshold
pKd (GRIP1_3, Q9Y3R0; [2]): below the threshold
pKd (GIPC2, Q8TF65): below the threshold
pKd (ARHGEF11, O15085; [2]): below the threshold
pKd (Inadl_10, Q8NI35; [2]): below the threshold
pKd (PCLO, Q9Y6V0; [2]): below the threshold
pKd (MAGI2_5, Q86UL8; [2]): below the threshold
pKd (GRIP2_7, Q9C0E4; [2]): below the threshold
pKd (MPP6, Q9NZW5; [2]): below the threshold
pKd (MAST2, Q6P0Q8; [2]): below the threshold
pKd (SNX27, Q96L92; [2]): 3.49
pKd (MAGI1_2, Q96QZ7; [2]): below the threshold
pKd (GRIP1_7, Q9Y3R0; [2]): below the threshold
pKd (LIMK2, P53671; [2]): below the threshold
pKd (GRIP1_5, Q9Y3R0; [2]): below the threshold
pKd (AHNAK1, Q09666; [2]): below the threshold
pKd (Inadl_6, Q8NI35; [2]): below the threshold
pKd (Inadl_2, Q8NI35; [2]): below the threshold
pKd (DFNB31_2, Q9P202; [2]): below the threshold
pKd (Inadl_8, Q8NI35; [2]): below the threshold
pKd (PDZD2_2, O15018; [2]): below the threshold
pKd (GRIP2_6, Q9C0E4; [2]): below the threshold
pKd (RAPGEF6, Q8TEU7; [2]): below the threshold
pKd (PDZRN4_1, Q6ZMN7; [2]): below the threshold
pKd (GRIP1_2, Q9Y3R0; [2]): below the threshold
pKd (GORASP1, Q9BQQ3; [2]): below the threshold
pKd (Inadl_3, Q8NI35; [2]): below the threshold
pKd (GRID2IP_2, A4D2P6; [2]): below the threshold

Further lines, results first:

pKd (TJP2_1, Q9UDY2; [1]): 3.96
pKd (GRIP1_3, Q9Y3R0; [1]): below the threshold
pKd (ARHGEF11, O15085; [1]): 5.16
pKd (Inadl_10, Q8NI35; [1]): below the threshold
pKd (PCLO, Q9Y6V0; [1]): below the threshold
pKd (MAGI2_5, Q86UL8; [1]): 4.88
pKd (GRIP2_7, Q9C0E4; [1]): below the threshold
pKd (MPP6, Q9NZW5; [1]): below the threshold
pKd (MAST2, Q6P0Q8; [1]): 5.14
pKd (SNX27, Q96L92; [1]): 5.32
pKd (MAGI1_2, Q96QZ7; [1]): 3.69
pKd (GRIP1_7, Q9Y3R0; [1]): below the threshold
pKd (LIMK2, P53671; [1]): below the threshold
pKd (GRIP1_5, Q9Y3R0; [1]): below the threshold
pKd (AHNAK1, Q09666; [1]): below the threshold
pKd (Inadl_6, Q8NI35; [1]): 4.37
pKd (Inadl_2, Q8NI35; [1]): 3.6
pKd (DFNB31_2, Q9P202; [1]): below the threshold
pKd (Inadl_8, Q8NI35; [1]): 4.82
pKd (PDZD2_2, O15018; [1]): 4.22
pKd (GRIP2_6, Q9C0E4; [1]): below the threshold
pKd (RAPGEF6, Q8TEU7; [1]): below the threshold
pKd (PDZRN4_1, Q6ZMN7; [1]): below the threshold
pKd (GRIP1_2, Q9Y3R0; [1]): below the threshold
pKd (GORASP1, Q9BQQ3; [1]): 4.04
pKd (Inadl_3, Q8NI35; [1]): below the threshold
pKd (GRID2IP_2, A4D2P6; [1]): 4.39
Binder: DEDQHTQITKV [PTEN_Ac, P60484]

pKd (TJP2_1, Q9UDY2; [2]): below the threshold
pKd (GRIP1_3, Q9Y3R0; [2]): below the threshold
pKd (GIPC2, Q8TF65): below the threshold
pKd (ARHGEF11, O15085; [2]): below the threshold
pKd (Inadl_10, Q8NI35; [2]): below the threshold
pKd (PCLO, Q9Y6V0; [2]): below the threshold
pKd (MAGI2_5, Q86UL8; [2]): below the threshold
pKd (GRIP2_7, Q9C0E4; [2]): 3.53
pKd (MPP6, Q9NZW5; [2]): 3.51
pKd (MAST2, Q6P0Q8; [2]): 4.1
pKd (SNX27, Q96L92; [2]): below the threshold
pKd (MAGI1_2, Q96QZ7; [2]): 3.51
pKd (GRIP1_7, Q9Y3R0; [2]): below the threshold
pKd (LIMK2, P53671; [2]): below the threshold
pKd (GRIP1_5, Q9Y3R0; [2]): below the threshold
pKd (AHNAK1, Q09666; [2]): below the threshold
pKd (Inadl_6, Q8NI35; [2]): below the threshold
pKd (Inadl_2, Q8NI35; [2]): below the threshold
pKd (DFNB31_2, Q9P202; [2]): 3.51
pKd (Inadl_8, Q8NI35; [2]): below the threshold
pKd (PDZD2_2, O15018; [2]): below the threshold
pKd (GRIP2_6, Q9C0E4; [2]): below the threshold
pKd (RAPGEF6, Q8TEU7; [2]): below the threshold
pKd (PDZRN4_1, Q6ZMN7; [2]): below the threshold
pKd (GRIP1_2, Q9Y3R0; [2]): below the threshold
pKd (GORASP1, Q9BQQ3; [2]): 3.77
pKd (Inadl_3, Q8NI35; [2]): below the threshold
pKd (GRID2IP_2, A4D2P6; [2]): below the threshold
Binder: GDHLDRRVVL [VAC14, Q08AM6]
